T1: IRP1 wild-type (Homo sapiens, UniProt P21399 1-889)
T1 sequence: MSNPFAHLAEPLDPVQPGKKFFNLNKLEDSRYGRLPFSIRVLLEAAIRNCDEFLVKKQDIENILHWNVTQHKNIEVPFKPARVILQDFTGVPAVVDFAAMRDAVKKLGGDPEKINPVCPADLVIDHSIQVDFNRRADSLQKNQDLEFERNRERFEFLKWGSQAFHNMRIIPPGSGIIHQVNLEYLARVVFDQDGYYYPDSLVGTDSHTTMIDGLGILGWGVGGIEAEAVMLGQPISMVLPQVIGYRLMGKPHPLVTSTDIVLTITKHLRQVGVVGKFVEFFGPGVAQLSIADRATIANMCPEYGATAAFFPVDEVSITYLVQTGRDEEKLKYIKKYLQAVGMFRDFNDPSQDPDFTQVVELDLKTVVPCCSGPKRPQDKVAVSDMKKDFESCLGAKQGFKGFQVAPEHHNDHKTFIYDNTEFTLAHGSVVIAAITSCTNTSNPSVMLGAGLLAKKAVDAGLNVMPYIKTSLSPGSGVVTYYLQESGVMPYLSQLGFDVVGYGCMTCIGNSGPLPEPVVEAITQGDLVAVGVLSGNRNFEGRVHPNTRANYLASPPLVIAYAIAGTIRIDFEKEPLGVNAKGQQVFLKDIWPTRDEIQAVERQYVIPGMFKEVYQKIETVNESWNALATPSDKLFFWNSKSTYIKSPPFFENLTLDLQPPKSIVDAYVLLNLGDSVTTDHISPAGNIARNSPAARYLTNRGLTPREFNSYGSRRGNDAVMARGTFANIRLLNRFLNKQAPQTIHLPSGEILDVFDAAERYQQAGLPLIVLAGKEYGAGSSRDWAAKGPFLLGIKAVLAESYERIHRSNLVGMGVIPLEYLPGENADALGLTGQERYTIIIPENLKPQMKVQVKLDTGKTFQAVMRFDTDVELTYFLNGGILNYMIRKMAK


Tests used:
[1] = target: T1, IRP1 wild-type; assay: EMSA
[2] = target: T1, IRP1 wild-type; assay: EMSA; remark: listed apart in the source

Row | Binder | Kd [1] | binding signal [2]
1 | UUUUUGUUUCCUGCUUCAACAGUGCUUGGACGGAAC (structured_RNA) [wt-IRE (FTH-IRE)] | 18 ± 5 nM | 
2 | UUUUUGUUUCCUGCUUCAAAGUGCUUGGACGGAAC (structured_RNA) [IRE-ΔC] |  | ~5 fold unbound RNA fraction vs wt-IRE

Source: article PMC7003851
